Numbering of substitutions follows the chain as printed.
B1: dBBAT091-P253 (antibody, human IgG1, lambda, V domains shown)
VH: EVQLVESGGDLVKPGGGLRLSCAASGFTFSSYTMNWVRQAPGKGLEWVSSISSRSNYIDYADSVKGRFTISRDNAKNSLYLQMNSLRAEDTAVYYCARFGKKNDMNWVFDYWGQGTLVTVSS
VL: QSALTQPPSASGSPGQTVTISCTGTSTDVGFYNYVSWYQQHPGKAPKLMIYEGSKRPSGVPDRFSGSKSGNTASLTVSGLQAEDEADYFCSSYEYTESVLFGGGTKLTVLG
B2: dBBAT021-P253 (antibody, human IgG1, lambda, V domains shown)
VH: B1 VH with I58R, F99Y, K101G, D104I, M105L
VL: B1 VL with T27S, G53V, E94S, Y95S, T96D, E97T, S98H, L100G
B3: dBBAT119-P253 (antibody, human IgG1, lambda, V domains shown)
VH: B1 VH with S31T, Y32F, I58K, D59S, F99Y, K101A, D104F
VL: B1 VL with E52Y, G53T, E94R, T96D, E97H, S98Q, L100S
notes: also called dBBAT119H-P253/dBBAT119L-LamLib
B4: dBBAT037-P253 (antibody, human IgG1, lambda, V domains shown)
VH: B1 VH with S31G, K101L, D104S, M105L
VL: B1 VL with G53T, E94S, Y95G, T96A, E97S, S98I, V99L
B5: dBBAT122-P253 (antibody, human IgG1, lambda, V domains shown)
VH: B1 VH with S31T, I58K, D59F, K101G, D104N
VL: B1 VL with T27S, G53V, T96I
B6: dBBAT112-P253 (antibody, human IgG1, lambda, V domains shown)
VH: B1 VH with S31T, I58K, D59F, K101V, D104N
VL: B1 VL with T27S, G53V, T96I
B7: 20H4.9-MB110/20H4.9LC-mk0 (antibody, mouse IgG1, kappa)
heavy: QVQLQQWGAGLLKPSETLSLTCAVYGGSFSGYYWSWIRQSPEKGLEWIGEINHGGYVTYNPSLESRVTISVDTSKNQFSLKLSSVTAADTAVYYCARDYGPGNYDWYFDLWGRGTLVTVSSAKTTPPSVYPLAPGSAAQTNSMVTLGCLVKGYFPEPVTVTWNSGSLSSGVHTFPAVLQSDLYTLSSSVTVPSSTWPSETVTCNVAHPASSTKVDKKIVPRDCGCKPCICTVPEVSDVFIFPPKPKDVLTITLTPKVTCVVVDISKDDPEVQFSWFVDDVEVHTAQTQPREEQFNSTFRSVSELPIMHQDWLNGKEFKCRVNSAAFPAPIEKTISKTKGRPKAPQVYTIPPPKEQMAKDKVSLTCMITDFFPEDITVEWQWNGQPAENYKNTQPIMDTDGSYFVYSKLNVQKSNWEAGNTFTCSVLHEGLHNHHTEKSLSHSPGK
light: EIVLTQSPATLSLSPGERATLSCRASQSVSSYLAWYQQKPGQAPRLLIYDASNRATGIPARFSGSGSGTDFTLTISSLEPEDFAVYYCQQRSNWPPALTFGGGTKVEIKRADAAPTVSIFPPSSEQLTSGGASVVCFLNNFYPKDINVKWKIDGSERQNGVLNSWTDQDSKDSTYSMSSTLTLTKDEYERHNSYTCEATHKTSTSPIVKSFNRNEC
notes: also called NS1-MB110
B8: 20H4.9-mIgG1/20H4.9LC-mk0 (antibody)
heavy: B7 heavy with D237S
light: B7 light
notes: also called NS1-mIgG1
B9: 20H4.9-MB492/20H4.9LC-mk0 (antibody, mouse IgG1, kappa)
heavy: B7 heavy with T231E, V232P, P233N, S236E, N322D
light: B7 light
notes: also called NS1-MB492

These binders were tested against T1, biotinylated Fc-fused monkey CD137 (monkey, biotin on the AviTag) (assay: ELISA, 1 mM ADP, 10 ug/mL).
T1 construct: also called cyCD137-Fc-BAP
T1 sequence (chain, as listed by the source limits assumed): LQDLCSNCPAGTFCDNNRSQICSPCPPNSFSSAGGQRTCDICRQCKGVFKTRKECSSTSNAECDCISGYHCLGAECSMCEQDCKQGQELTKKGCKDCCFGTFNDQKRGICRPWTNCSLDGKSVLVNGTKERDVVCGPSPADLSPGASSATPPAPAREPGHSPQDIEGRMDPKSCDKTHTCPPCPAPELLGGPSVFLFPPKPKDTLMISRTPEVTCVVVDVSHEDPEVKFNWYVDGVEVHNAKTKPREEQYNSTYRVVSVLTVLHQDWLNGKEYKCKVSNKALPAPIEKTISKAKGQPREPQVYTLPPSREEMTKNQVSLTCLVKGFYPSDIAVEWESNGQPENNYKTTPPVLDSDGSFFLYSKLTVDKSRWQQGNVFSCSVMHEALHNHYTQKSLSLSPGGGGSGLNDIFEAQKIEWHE
Design: reference not given here
Description: (§1) The obtained antibodies were evaluated for binding to monkey CD137 by ELISA. The cyCD137-Fc-BAP prepared in Reference Example 1 was immobilized on Streptawell microtiter plates. After the unbound antigen was removed from the plates by washing each well of the plates with the wash buffer, the wells were blocked with 150 μL of a blocking buffer (TBS with 2% BSA) for 1 hour or more. The blocking buffer was removed from each well, and 100 μL of the purified antibodies diluted in TBS with a final concentration of 1 mM ADP, or TBS with a final concentration 1 mM ADP was added to each well. The plate to which the antibody was added was shaken at 600 rpm for 1 hour. The AP-conjugated anti-human lambda antibodies (BETHYL) diluted in TBS with a final concentration of 1 mM ADP were added to each well after washing with a wash buffer (TBS with 0.1% Tween20) containing a final concentration of 1 mM ADP. After incubation for one hour and washing with a wash buffer containing a final concentration of 1 mM […], BluePhos phosphate substrate (KPL) was added. Color development was measured by absorbance at 600 nm. Samples with a concentration-dependent increase in the absorbance ratio can be said to be bound to monkey CD137.
In the case of B1, the absorbance ratio is reported as 15.1. For B2, the absorbance ratio was 40.5. B3 was tested, and the absorbance ratio was 55.3. With B4 the absorbance ratio was 32.5. B5 showed an absorbance ratio of 31.9. B6 gave an absorbance ratio of 19.8.

These binders were tested against T2, hCD137 (FXa digested) (human, UniProt Q07011 24-186) (assay: SPR, 1 mM AMP).
T2 construct: Factor Xa digestion and Protein A removed the Fc; also called human CD137 extracellular domain
T2 sequence (Q07011 other isoform, or with tags, fused parts or gaps limits assumed): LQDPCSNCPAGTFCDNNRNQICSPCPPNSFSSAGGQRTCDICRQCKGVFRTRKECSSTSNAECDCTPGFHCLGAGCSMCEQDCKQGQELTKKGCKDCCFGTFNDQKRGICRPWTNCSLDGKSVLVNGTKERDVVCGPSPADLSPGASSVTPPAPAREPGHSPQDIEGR
Description: (§2) Biacore T200 (GE Healthcare) was used to analyze the interaction of antigen-antibody reaction between the anti-CD137 antibodies and hCD137 (FXa digest). […] For the running buffer, 20 mM ACES, 150 mM NaCl, 2 mM MgCl₂, 0.05% Tween20 (pH 7.4) was used, and 10 mM Glycine-HCl (pH 1.5) was used as the regeneration solution.
(§3) After capturing of the anti-CD137 antibodies suspended in TBS, 500 nM hCD137 (FXa digest) was injected into each flow cell at a flow rate of 10 μL/min for three minutes. This three-minute period served as the binding phase for hCD137 (FXa digest), and after the binding phase ended, the two-minute period of switching to the running buffer served as the dissociation phase for hCD137 (FXa digest). After completion of the dissociation phase, the regenerative solution was injected at a flow rate of 30 μl/min for 30 seconds. The above was the cycle for measuring the binding activity of anti-CD137 antibodies. The binding amount of hCD137 (FXa digest) that interacted with the anti-CD137 antibody in the binding phase was adjusted by the amount of antibody captured. Biacore T200 Evaluation Software Version 2.0 was used to display the binding amount (RU) per capture ligand 1 RU, and values of the antibody capture amount (amount of antibody captured) and antigen-binding amount were obtained. Since the binding amount of antigen reflects the binding activity, it can be said that dependence on a small molecule is recognized when the value in the presence of the small molecule (ATP, ADP or AMP) is higher than the value without the small molecule. In particular, the larger the difference is, the higher the dependence is on a small molecule.
In the case of B1, the binding amount is reported as 2.9 RU. B2 was tested, and the binding amount was 5.7 RU. B3 gave a binding amount of 58.6 RU. B4 was tested, and the binding amount was 21.7 RU. With B5 the binding amount was 5.7 RU. B6 gave a binding amount of 6.5 RU.

Each binder was assayed against T2, hCD137 (FXa digested) (assay: SPR 37C, 10 uM ATP).
Description: (§4) Measurements of human CD137 binding were taken at 37° C. using 20 mM ACES (pH 7.4), 150 mM NaCl, 2 mM MgCl₂, and 0.05% Tween20 as running buffer. At first, antibodies were captured by interacting antibody solutions prepared in running buffer with the rabbit anti-mouse IgG (Thermo Scientific)-immobilized Series S Sensor Chip CM5 (GE Healthcare). The human CD137-binding activity in the presence of ATP and in the absence of ATP was then assessed by interacting with a human CD137 solution prepared in running buffer supplemented with a desired concentration of ATP, or a human CD137 solution prepared in running buffer without ATP. […] The chip was regenerated using 25 mM NaOH and 10 mM Glycine-HCl (pH 1.5), and measurements were performed by repeatedly capturing antibodies. Dissociation constant (KD) of the respective antibodies for human CD137 was calculated using Biacore T200 Evaluation Software 2.0. Specifically, the association rate constant ka (L/mol/s) and the dissociation rate constant kd (1/s) were calculated by global fitting of the sensorgrams obtained by measurement with the 1:1 Langmuir binding model, and the dissociation constant KD (mol/L) was calculated from these values.
B7 showed a Kd of 53.9 nM. B8 gave a Kd of 54.4 nM. Binder B9 has a Kd of 53.5 nM.

Each binder was assayed against T2, hCD137 (FXa digested) (assay: SPR 37C, 100 uM ATP).
Description: as §4
Binder B7 has a Kd of 51.9 nM. Work on B8 yielded a Kd of 53.6 nM. Work on B9 yielded a Kd of 50.4 nM.

What follows are binders tested against T1, biotinylated Fc-fused monkey CD137 (assay: ELISA, 1 mM ADP, 2.5 ug/mL).
Design: reference not given here
Description: as §1
B1 showed an absorbance ratio of 5.5. B2 was tested, and the absorbance ratio was 14. With B3 the absorbance ratio was 56.6. Work on B4 yielded an absorbance ratio of 12.7. B5 showed an absorbance ratio of 16.7. B6 was tested, and the absorbance ratio was 8.1.

Each binder was assayed against T2, hCD137 (FXa digested) (assay: SPR, 100 uM ATP).
Description: as §2, §3
B1 gave a binding amount of 3 RU. Binder B2 has a binding amount of 2.4 RU. Work on B3 yielded a binding amount of 12.9 RU. B4 showed a binding amount of 15.9 RU. B5 was tested, and the binding amount was 4.7 RU. B6 gave a binding amount of 6.3 RU.

The binders below were run against T1, biotinylated Fc-fused monkey CD137 (assay: ELISA, 1 mM ADP, 0.010 ug/mL).
Design: reference not given here
Description: as §1
Binder B1 has an absorbance ratio of 0.6. B2 was tested, and the absorbance ratio was 0.9. B3 was tested, and the absorbance ratio was 10.2. Binder B4 has an absorbance ratio of 1.1. Binder B5 has an absorbance ratio of 0.9. In the case of B6, the absorbance ratio is reported as 0.6.

These binders were tested against T1, biotinylated Fc-fused monkey CD137 (assay: ELISA, 1 mM ADP, 0.039 ug/mL).
Design: reference not given here
Description: as §1
With B1 the absorbance ratio was 0.5. With B2 the absorbance ratio was 1.2. B3 was tested, and the absorbance ratio was 26.6. For B4, the absorbance ratio was 1.3. In the case of B5, the absorbance ratio is reported as 1. Binder B6 has an absorbance ratio of 0.6.

These binders were tested against T2, hCD137 (FXa digested) (assay: SPR, 1 mM ATP).
Description: as §2, §3
B1 was tested, and the binding amount was 6.2 RU. Work on B2 yielded a binding amount of 9.2 RU. Work on B3 yielded a binding amount of 45.7 RU. Work on B4 yielded a binding amount of 27.5 RU. Work on B5 yielded a binding amount of 11.5 RU. B6 showed a binding amount of 12.6 RU.

The binders below were run against T2, hCD137 (FXa digested) (assay: SPR, 100 uM ADP).
Description: as §2, §3
For B1, the binding amount was 33 RU. Binder B2 has a binding amount of 56.6 RU. B3 gave a binding amount of 112 RU. In the case of B4, the binding amount is reported as 72.1 RU. With B5 the binding amount was 55.5 RU. B6 gave a binding amount of 43 RU.

What follows are binders tested against T2, hCD137 (FXa digested) (assay: SPR 37C, 1 uM ATP).
Description: as §4
B7 gave a Kd of 56.5 nM. B8 showed a Kd of 56.2 nM. B9 was tested, and the Kd was 54.9 nM.

The binders below were run against T2, hCD137 (FXa digested) (assay: SPR, 10 uM ADP).
Description: as §2, §3
With B1 the binding amount was 20 RU. Work on B2 yielded a binding amount of 19.6 RU. Work on B3 yielded a binding amount of 67.2 RU. In the case of B4, the binding amount is reported as 62.9 RU. Binder B5 has a binding amount of 19.2 RU. B6 gave a binding amount of 27.4 RU.

These binders were tested against T2, hCD137 (FXa digested) (assay: SPR 37C, no ATP).
Description: as §4
Binder B7 has a Kd of 61 nM. B8 gave a Kd of 61.7 nM. B9 showed a Kd of 61.6 nM.

What follows are binders tested against T1, biotinylated Fc-fused monkey CD137 (assay: ELISA, 1 mM ADP, 0.156 ug/mL).
Design: reference not given here
Description: as §1
With B1 the absorbance ratio was 0.7. Binder B2 has an absorbance ratio of 1.7. B3 showed an absorbance ratio of 47.7. In the case of B4, the absorbance ratio is reported as 1.9. B5 was tested, and the absorbance ratio was 1.9. In the case of B6, the absorbance ratio is reported as 1.

Each binder was assayed against T2, hCD137 (FXa digested) (assay: SPR, no small molecule).
Description: as §2, §3
B1 was tested, and the binding amount was 1.5 RU. Binder B2 has a binding amount of 2.9 RU. Work on B3 yielded a binding amount of 3.3 RU. In the case of B4, the binding amount is reported as 3.8 RU. With B5 the binding amount was 3.3 RU. B6 gave a binding amount of 3.7 RU.

The binders below were run against T2, hCD137 (FXa digested) (assay: SPR, 100 uM AMP).
Description: as §2, §3
Binder B1 has a binding amount of 3.3 RU. With B2 the binding amount was 3 RU. B3 gave a binding amount of 26.9 RU. Binder B4 has a binding amount of 13.8 RU. B5 showed a binding amount of 4.1 RU. Work on B6 yielded a binding amount of 4.8 RU.

These binders were tested against T1, biotinylated Fc-fused monkey CD137 (assay: ELISA, 1 mM ADP, 0.625 ug/mL).
Design: reference not given here
Description: as §1
B1 gave an absorbance ratio of 1.7. B2 gave an absorbance ratio of 4.6. For B3, the absorbance ratio was 57.2. B4 gave an absorbance ratio of 4.6. For B5, the absorbance ratio was 5.7. For B6, the absorbance ratio was 2.8.
